Our source for the Kd values is publication PMC4414246.

Some targets named below: U1A M51A:N15V (UniProt P09012 10-89, N15V;M51A); U1A E19S:N15V (UniProt P09012 10-89, N15V;E19S); U1A E19S:F56A (UniProt P09012 10-89, E19S;F56A); U1A L49S (UniProt P09012 10-89, L49S); U1A L49F (UniProt P09012 10-89, L49F); U1A E19F (UniProt P09012 10-89, E19F); U1A E19A:Y13Q (UniProt P09012 10-89, Y13Q;E19A); U1A L49N (UniProt P09012 10-89, L49N); U1A M51K (UniProt P09012 10-89, M51K); U1A S46A (UniProt P09012 10-89, S46A); U1A M51A:F56A (UniProt P09012 10-89, M51A;F56A); U1A E19A:F56A (UniProt P09012 10-89, E19A;F56A); U1A M51F (UniProt P09012 10-89, M51F); U1A M51S (UniProt P09012 10-89, M51S); U1A K50A (UniProt P09012 10-89, K50A); U1A S48A (UniProt P09012 10-89, S48A); U1A E19F:F56A (UniProt P09012 10-89, E19F;F56A); U1A L49A (UniProt P09012 10-89, L49A); dK50dM51 N15A (UniProt P09012 10-89, N15A;del50-51); U1A E19F:Y13Q (UniProt P09012 10-89, Y13Q;E19F); U1A E19A:N15V (UniProt P09012 10-89, N15V;E19A); U1A L49A:N15V (UniProt P09012 10-89, N15V;L49A); U1A E19F:N15V (UniProt P09012 10-89, N15V;E19F); U1A E19K (UniProt P09012 10-89, E19K).

Common to all, as to assay: fluorescence polarization

Broadly, the Kd is the concentration at which binding is half-saturated. A high value points to weaker binding. GGCAGAUCUGAGCCUGGGAGCUCUCUGCC (structured_RNA) [TAR RNA]: the Kd stood at 46 ± 13.4 µM with U1A M51A:N15V; 11.3 ± 0.8 µM with U1A E19S:N15V; 19.2 ± 1.4 µM with U1A E19S:F56A; 12.4 ± 2.3 µM with U1A L49S; 24.1 ± 4.3 µM with U1A L49F; 6.2 ± 0.8 µM in the data set with U1A E19F. The Kd with U1A E19A:Y13Q was found to be 21.7 ± 5.3 µM; with U1A L49N, 14.4 ± 2.1 µM; with U1A M51K it was 7.7 ± 0.5 µM; with U1A S46A, 15.1 ± 2.6 µM; in the data set with U1A M51A:F56A it was 177 ± 98.2 µM; with U1A E19A:F56A it was 29.2 ± 6.3 µM. The dissociation constant (Kd) turned out to be 16.4 ± 2.3 µM with U1A M51F; 29.9 ± 5.7 µM with U1A M51S; 39.6 ± 12.2 µM with U1A K50A; 14.2 ± 1.3 µM with U1A S48A; 20.9 ± 3.3 µM with U1A E19F:F56A; 5.2 ± 0.5 µM in the data set with U1A L49A. Moreover, the Kd with dK50dM51 N15A stood at 91.1 ± 8.8 µM; in the data set with U1A E19F:Y13Q, 58 ± 24.1 µM; with U1A E19A:N15V, 14.2 ± 1.4 µM; with U1A L49A:N15V, 39.2 ± 9.6 µM; with U1A E19F:N15V, 19 ± 2.5 µM; with U1A E19K, 5.9 ± 0.4 µM.
